We go through one substance from publication PMC3923860.

For this data set, the system named is H1-CΔ97 (histone H1o lacking C-terminal domain) (mouse). As to the kind of experiment: EMSA. The conditions noted are these: no competitor DNA; EMSA: 50 mM NaCl, 25 mM Tris-HCl pH 7.5, 1 mM EDTA, 1 mM DTT, 100 ug/ml acetylated BSA, 3% glycerol; 30 min on ice; gels 0.5x TBE, 4 C.

Substance hemicatenated DNA loops (hcDNA) yielded a Kd of 35 nM.
